Laboratory results as given in paper PMC4453223.

Biological target: microtubule (MT) filaments

Sequence of DmK-4AA (P17210 other isoform, or with tags, fused parts or gaps): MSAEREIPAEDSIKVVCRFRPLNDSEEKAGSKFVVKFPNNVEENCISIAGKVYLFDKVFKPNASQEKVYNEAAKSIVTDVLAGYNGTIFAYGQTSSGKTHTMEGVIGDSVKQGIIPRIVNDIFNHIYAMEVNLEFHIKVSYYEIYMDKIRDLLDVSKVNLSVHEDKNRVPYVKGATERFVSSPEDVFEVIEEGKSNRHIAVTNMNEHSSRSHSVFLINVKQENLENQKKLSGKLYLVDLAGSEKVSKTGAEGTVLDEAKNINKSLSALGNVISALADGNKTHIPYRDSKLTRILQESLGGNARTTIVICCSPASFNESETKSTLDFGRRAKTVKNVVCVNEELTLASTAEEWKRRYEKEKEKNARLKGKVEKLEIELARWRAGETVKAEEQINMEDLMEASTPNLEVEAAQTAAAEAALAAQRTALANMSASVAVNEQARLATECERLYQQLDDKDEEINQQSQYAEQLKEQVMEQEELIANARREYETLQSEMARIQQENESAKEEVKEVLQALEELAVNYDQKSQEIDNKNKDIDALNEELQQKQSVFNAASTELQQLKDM

Substance “DmK-4AA (from UniProt P17210 1-559) (domain or fragment)” has a half-site mantADP release (stopped flow): share of motors releasing mantADP from both heads upon the addition of MTs of 16%.
